# Results as given in patent US20200255501A1 (VIB VZW, published 2020).
# Changes are numbered by the printed parent chain.
# B1: anti-Sap Nanobody683 (VHH)
# VHH: QVQLVESGGGLVQAGGSLRLSCAASGSIFRINDMGWYRQAPGKQRELVAAITSGGSTNYADSVKGRFTISRDNAKKMVYLQMNSLKPEDTAVYYCHADFSTGWAPYDYWGQGTQVTVSS
# B2: anti-Sap Nanobody688 (VHH)
# VHH: QVQLVESGGGLVRAGGSLRLSCAASGSIFRINDMGWYRQAPGKQRELVAAITSGGSTNYADSVKGRFTISRDNAKNTVYLQMNSLKPEDTAVYYCNADFSTVRERRYDYWGQGTQVTVSS
# B3: anti-Sap Nanobody707 (VHH)
# VHH: B1 VHH with D33A, P41S, S56N, K76N, M77T, H96N, S100G, W103G, A104R
# B4: anti-Sap Nanobody702 (VHH)
# VHH: QVQLVESGGGLVQAGGSLRLSCAASGSIFRVNDMGWYRQAPGKQRELVAIIITGGSTNYADSVKGRFTISRDNAKNTVYLQMNSLRPEDTAVYYCNADFGTGPGRYDYWGQGTQVTVSS
# B5: anti-Sap Nanobody704 (VHH)
# VHH: QVQLVESGGGLVQPGGSLRLSCAASGFTFSNFAIAWVRQAPGKGLEWVSDINSGGTDTSYAAAVKGRFTISRDNAKNTLYLQMNNLKPEDTAVYYCAKSAQSYFHSTFDHRGQGTQVTVSS
# Target: T1, B. anthracis Sap S-Layer assembly domain (Sap^AD; residues 216-814), C-terminal His6 (Bacillus anthracis, UniProt P49051 216-814)
# Assay: ITC, Nb titrated into fresh monomeric Sapc, 30 °C
row,Binder,Kd [nM]
1,B1,35
2,B2,120

# Target: T1, B. anthracis Sap S-Layer assembly …
# Assay: isothermal titration calorimetry, […]
row,Binder,Kd [nM]
1,B3,103
2,B4,72.5
3,B1,35.8
4,B5,183
